Laboratory results as given in paper doi:10.1101/586255v1.

Substrate: N[C@@H](CO)C(=O)O
Assay: purified protein, by the assay type
Conditions: pH 7.6; 37.0 °C

Protein	Km [mM]
EcSerRS (Escherichia coli K-12) (protein) MLDPNLLRNEPDAVAEKLARRGFKLDVDKLGALEERRKVLQVKTENLQAERNSRSKSIGQAKARGEDIEPLRLEVNKLGEELDAAKAELDALQAEIRDIALTIPNLPADEVPVGKDENDNVEVSRWGTPREFDFEVRDHVTLGEMHSGLDFAAAVKLTGSRFVVMKGQIARMHRALSQFMLDLHTEQHGYSENYVPYLVNQDTLYGTGQLPKFAGDLFHTRPLEEEADTSNYALIPTAEVPLTNLVRGEIIDEDDLPIKMTAHTPCFRSEAGSYGRDTRGLIRMHQFDKVEMVQIVRPEDSMAALEEMTGHAEKVLQLLGLPYRKIILCTGDMGFGACKTYDLEVWIPAQNTYREISSCSNVWDFQARRMQARCRSKSDKKTRLVHTLNGSGLAVGRTLVAVMENYQQADGRIEVPEVLRPYMNGLEYIG	4.706 ± 0.706
SaSerRS (Staphylococcus aureus subsp. aureus NCTC 8325) (protein) MLDIRLFRNEPDTVKSKIELRGDDPKVVDEILELDEQRRKLISATEEMKARRNKVSEEIALKKRNKENADDVIAEMRTLGDDIKEKDSQLNEIDNKMTGILCRIPNLISDDVPQGESDEDNVEVKKWGTPREFSFEPKAHWDIVEELKMADFDRAAKVSGARFVYLTNEGAQLERALMNYMITKHTTQHGYTEMMVPQLVNADTMYGTGQLPKFEEDLFKVEKEGLYTIPTAEVPLTNFYRNEIIQPGVLPEKFTGQSACFRSEAGSAGRDTRGLIRLHQFDKVEMVRFEQPEDSWNALEEMTTNAEAILEELGLPYRRVILCTGDIGFSASKTYDLEVWLPSYNDYKEISSCSNCTDFQARRANIRFKRDKAAKPELAHTLNGSGLAVGRTFAAIVENYQNEDGTVTIPEALVPFMGGKTQISKPVK	4.39 ± 0.654
